Laboratory results reported in patent US5789216A, “Cloning and expression of human GMP synthetase, its use in screening for inhibitors of human GMP synthetase and inhibitors of human GMP synthetase” (Syntex (U.S.A.) Inc., priority 1995, dated 1998).
Like-named read-outs stand apart in the source and are kept apart here.

How the values were obtained:
lymphocyte = conditions: can be blocked by exogenous guanosine; cited from earlier work
[1] = tested on: transplant rejection and rheumatoid arthritis; conditions: recent clinical trials; cited from earlier work
IMP dehydrogenase = conditions: cited from earlier work
[2] = tested on: GMP synthetase from Ehrlich ascites cells; conditions: cited from earlier work
[3] = Spectrophotometric-coupled assay of Spector (rate of AMP production; specific activity of enzyme preparations); assay type: biochemical
From the text: The medium will usually be a salt medium such as normal saline, phosphate buffer, or phosphate buffered saline containing additives well known to those skilled in the art and commercially available from a number of suppliers such as GIBCO and Hyclone. The cultured cells are then homogenized under conventional conditions such as, for example, sonication, freeze-thawing, and hypotonic lysis, and the cytosolic fraction is obtained by centrifugation and recovery of the supernatant. Differential salt fractionation, using, for example, ammonium sulfate, is employed to separate the GMP synthetase-richprotein fraction. Salt is then removed by one of a variety of known methods such as gel filtration, dialysis and the like. The desalted protein fraction is then subjected to anion exchange chromatography. […] Fractions showing GMP-synthetase activity are further subjected to hydrophobic interaction chromatography and a second purification via anion exchange chromatography. […] The assay measures the rate of production of AMP by GMP synthetase by coupling it to the oxidation of NADH via the auxiliary enzymes AMP kinase, pyruvate kinase and lactate dehydrogenase.
This assay measured the rate of AMP production by GMP synthetase, and the level of AMP is measured through the activity of three auxiliary enzymes. […] This rate is referred to as background rate.

[4] = partially purified, approximately 50-fold, human fibroblast cells; cited from earlier work
[5] = purified enzyme, repeated purifications or single preparation

Compound: COc1c(C)c2c(c(O)c1C/C=C(\C)CCC(=O)O)C(=O)OC2 [mycophenolic acid]
- inhibition of lymphocyte proliferation, correlated with lowering of the intracellular pool of guanine nucleotides (lymphocyte): inhibition of lymphocyte proliferation
- effective in treatment of transplant rejection and rheumatoid arthritis [1]: effective
- inhibitor of IMP dehydrogenase (IMP dehydrogenase): potent inhibitor

Compound: O=P(O)(O)OP(=O)(O)O [pyrophosphate]
- inhibition of the enzyme by its reaction product [2]: inhibition

Compound: human GMP synthetase: purified human GMP synthetase from A3.01 cells, single Coomassie blue-staining band at 75 kDa
- specific activity ([3]; Mono Q pool, purified from A3.01 cells): 3.0 μmol AMP/min-mg
- specific activity [3, 5]: 2.5-4.0 μmol AMP produced/min/mg

Compound: partially purified preparation from human fibroblast cells: GMP synthetase from human fibroblasts, purified approximately 50-fold by ammonium sulfate fractionation and gel filtration
- specific activity [4]: 5990 pmoles guanine compound produced/min/mg

Compound: recombinant human GMP synthetase: baculoviral expressed human GMP synthetase purified from Sf-9 cells
- specific activity [3, 5]: 3.0-4.4 μmol AMP produced/min/mg
- specific activity ([3]; purified enzyme, repeated purifications or single preparation, listed as purified protein): 4.4 μmol AMP produced/min/mg
